Earlier results on 1 substance are cited in PMC9960319.

pKd: −log10 of the molar value.

This data set addresses intermediate-affinity IL-2 receptor (Homo sapiens) (UniProt P14784).
UniProt P14784, sequence (P14784 27-240, chain 1 of 2): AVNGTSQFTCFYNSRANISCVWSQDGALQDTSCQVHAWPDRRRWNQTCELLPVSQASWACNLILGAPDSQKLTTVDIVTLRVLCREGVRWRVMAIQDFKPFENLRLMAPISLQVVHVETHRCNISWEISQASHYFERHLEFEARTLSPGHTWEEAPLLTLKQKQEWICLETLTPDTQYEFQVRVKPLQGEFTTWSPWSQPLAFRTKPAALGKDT
UniProt P14784, sequence (P31785 23-262, chain 2 of 2, further chain): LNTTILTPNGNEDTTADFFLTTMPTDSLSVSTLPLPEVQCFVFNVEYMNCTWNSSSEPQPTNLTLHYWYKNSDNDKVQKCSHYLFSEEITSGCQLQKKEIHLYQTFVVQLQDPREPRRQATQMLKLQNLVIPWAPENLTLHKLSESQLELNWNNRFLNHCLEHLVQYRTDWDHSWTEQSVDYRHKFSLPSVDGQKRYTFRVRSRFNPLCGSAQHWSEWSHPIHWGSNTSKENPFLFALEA

As to IL-2 moiety (from UniProt P60568), the pKd – broadly, the negative decadic logarithm of the Kd, by convention in mol/L – is 7.40.
